Assays:
HPLC end-point assay [1] = substrate: O=C(O)/C=C(/CC(=O)O)C(=O)O; experiment: HPLC end-point assay; type: biochemical, Escherichia coli; conditions: 2 mM Tris-HCl, 37 °C, 10 min, 0.05-1.0 mM substrate
Excerpt: (§1) HPLC end-point assay on PrpD

HPLC end-point assay [2] = substrate: CC(C(=O)O)C(O)(CC(=O)O)C(=O)O; experiment: HPLC end-point assay; type: biochemical, Escherichia coli; conditions: 2 mM Tris-HCl, 37 °C, 10 min, 0.1-1 mM substrate
Excerpt: as §1

Protein	Km (HPLC end-point assay [1]) [µM]	kcat (HPLC end-point assay [1]) [s⁻¹]	kcat/Km (HPLC end-point assay [1]) [M⁻¹ s⁻¹]	Km (HPLC end-point assay [2]) [µM]	kcat (HPLC end-point assay [2]) [s⁻¹]	kcat/Km (HPLC end-point assay [2]) [M⁻¹ s⁻¹]
PrpD (Escherichia coli K-12; G111T/W110V) (protein, 6xHis-tagged, cloned from E. coli W into pACYCduet-1, purified anaerobically by His-tag kit) SAQINNIRPEFDREIVDIVDYVMNYEISSKVAYDTAHYCLLDTLGCGLEALEYPACKKLLGPIVPGTVVPNGVRVPGTQFQLDPVQAAFNIGAMIRWLDFNDTWLAAEVTHPSDNLGGILATADWLSRNAVASGKAPLTMKQVLTAMIKAHEIQGCIALENSFNRVGLDHVLLVKVASTAVVAEMLGLTREEILNAVSLAWVDGQSLRTYRHAPNTGTRKSWAAGDATSRAVRLALMAKTGEMGYPSALTAPVWGFYDVSFKGESFRFQRPYGSYVMENVLFKISFPAEFHSQTAVEAAMTLYEQMQAAGKTAADIEKVTIRTHEACIRIIDKKGPLNNPADRDHCIQYMVAIPLLFGRLTAADYEDNVAQDKRIDALREKINCFEDPAFTADYHDPEKRAIANAITLEFTDGTRFEEVVVEYPIGHARRRQDGIPKLVDKFKINLARQFPTRQQQRILEVSLDRARLEQMPVNEYLDLYVI	1720 ± 250	172 ± 20	101000 ± 3180	1930 ± 210	0.023 ± 0.008	12 ± 6
PrpD (Escherichia coli K-12; G111T/I331L/W110V) (protein, 6xHis-tagged, cloned from E. coli W into pACYCduet-1, purified anaerobically by His-tag kit) SAQINNIRPEFDREIVDIVDYVMNYEISSKVAYDTAHYCLLDTLGCGLEALEYPACKKLLGPIVPGTVVPNGVRVPGTQFQLDPVQAAFNIGAMIRWLDFNDTWLAAEVTHPSDNLGGILATADWLSRNAVASGKAPLTMKQVLTAMIKAHEIQGCIALENSFNRVGLDHVLLVKVASTAVVAEMLGLTREEILNAVSLAWVDGQSLRTYRHAPNTGTRKSWAAGDATSRAVRLALMAKTGEMGYPSALTAPVWGFYDVSFKGESFRFQRPYGSYVMENVLFKISFPAEFHSQTAVEAAMTLYEQMQAAGKTAADIEKVTIRTHEACIRLIDKKGPLNNPADRDHCIQYMVAIPLLFGRLTAADYEDNVAQDKRIDALREKINCFEDPAFTADYHDPEKRAIANAITLEFTDGTRFEEVVVEYPIGHARRRQDGIPKLVDKFKINLARQFPTRQQQRILEVSLDRARLEQMPVNEYLDLYVI	720 ± 100	81.8 ± 14.1	114000 ± 14600	1960 ± 210	0.024 ± 0.008	13 ± 5
PrpD (Escherichia coli K-12; I331L/W110V) (protein, 6xHis-tagged, cloned from E. coli W into pACYCduet-1, purified anaerobically by His-tag kit) SAQINNIRPEFDREIVDIVDYVMNYEISSKVAYDTAHYCLLDTLGCGLEALEYPACKKLLGPIVPGTVVPNGVRVPGTQFQLDPVQAAFNIGAMIRWLDFNDTWLAAEVGHPSDNLGGILATADWLSRNAVASGKAPLTMKQVLTAMIKAHEIQGCIALENSFNRVGLDHVLLVKVASTAVVAEMLGLTREEILNAVSLAWVDGQSLRTYRHAPNTGTRKSWAAGDATSRAVRLALMAKTGEMGYPSALTAPVWGFYDVSFKGESFRFQRPYGSYVMENVLFKISFPAEFHSQTAVEAAMTLYEQMQAAGKTAADIEKVTIRTHEACIRLIDKKGPLNNPADRDHCIQYMVAIPLLFGRLTAADYEDNVAQDKRIDALREKINCFEDPAFTADYHDPEKRAIANAITLEFTDGTRFEEVVVEYPIGHARRRQDGIPKLVDKFKINLARQFPTRQQQRILEVSLDRARLEQMPVNEYLDLYVI	1520 ± 80	96.3 ± 4.55	63600 ± 3330	1720 ± 540	0.035 ± 0.009	21 ± 2
PrpD (Escherichia coli K-12) (protein, 6xHis-tagged, cloned from E. coli W into pACYCduet-1, purified anaerobically by His-tag kit) SAQINNIRPEFDREIVDIVDYVMNYEISSKVAYDTAHYCLLDTLGCGLEALEYPACKKLLGPIVPGTVVPNGVRVPGTQFQLDPVQAAFNIGAMIRWLDFNDTWLAAEWGHPSDNLGGILATADWLSRNAVASGKAPLTMKQVLTAMIKAHEIQGCIALENSFNRVGLDHVLLVKVASTAVVAEMLGLTREEILNAVSLAWVDGQSLRTYRHAPNTGTRKSWAAGDATSRAVRLALMAKTGEMGYPSALTAPVWGFYDVSFKGESFRFQRPYGSYVMENVLFKISFPAEFHSQTAVEAAMTLYEQMQAAGKTAADIEKVTIRTHEACIRIIDKKGPLNNPADRDHCIQYMVAIPLLFGRLTAADYEDNVAQDKRIDALREKINCFEDPAFTADYHDPEKRAIANAITLEFTDGTRFEEVVVEYPIGHARRRQDGIPKLVDKFKINLARQFPTRQQQRILEVSLDRARLEQMPVNEYLDLYVI	700 ± 100	119 ± 13.4	171000 ± 5650	960 ± 850	0.045 ± 0.025	75 ± 54
